The nanobody polyreactivity screen of Harvey et al. (2022)

Assay: yeast display, Sf9 membrane polyspecificity reagent, FACS + sequencing; frameworks hold sequencing errors
In short: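 Synthetic nanobody libraries on Saccharomyces cerevisiae BJ5465 were galactose-induced for 36–48 hours, stained 1 hour at 4 °C with 10% biotinylated, detergent-solubilized Sf9 membrane reagent and enriched on streptavidin microbeads. FACS then separated cells into low and high (top ~1%) gates by anti-HA (expression) and streptavidin (reagent binding) fluorescence. Genes were colony-PCR amplified, MiSeq 2 × 250 sequenced and CDR-length filtered. A clone's polyreactivity label is that of its gate of origin.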

Sequence	polyreactivity (PSR sort gate)
QVQLVESGGGLVQAGGSLRLSCAASGSTFIFYAMGWYRQAPGKERELVAAITSSGGSTYYADSVKGRFTISRDNAKNTVYLQMNSLKPEDTAVYYCNTLAYTYGSKFGYWGQGTQVTVSS	low polyreactivity
QVQLVESGGGLVQAGGSLRLSCAASGSTFIFYAMGWYRQAPGKERELVASITSRAASTYYADSVKGRFTISRDIAKNTVYLQMNSLKPEDTAVYYCAATFSYTLFWWSSFLLYDYWGQGTQVTVSS	low polyreactivity
QVQLVESGGGLVQAGGSLRLSCAASGSTFIGNAMGWYRQAPGKEREFVATISQNGGRTYYADSVKGRFTISRDNAKNTVYLQMNSLKPEDTAVYYCAADDWRWGYDYWGQGTQVTVSS	high polyreactivity
QVQLVESGGGLVQAGGSLRLSCAASGSTFIGYAMGWYRQAPGKERELVAAISRRGSRTYYADSVKGRFTISRDNAKNTVYLQINSLKPEDTAVYYCNRDYREYGYAYSGRYYWGQGTQVTVSS	high polyreactivity
QVQLVESGGGLVQAGGSLRLSCAASGSTFIGYAMGWYRQAPGKERELVAAISRSDGSTYYADSVKGRFTISRDHAKNTVYLQMNSLKPEDTAVYYCNADYYRWYDYWGQGTQVTLSS	low polyreactivity
QVQLVESGGGLVQAGGSLRLSCAASGSTFIHNAMGWYRQAPGNERELVAAITSGGSTYYADSVKGRFTISRDNAMNTVYLQMNSLKPEDTAVYYCNRGSWRYSTMEYWGQGTLVTVSS	high polyreactivity
QVQLVESGGGLVQAGGSLRLSCAASGSTFIIYSMGWYRQAPGKERELVATISTRGTSTYYADSVKGRFTISRDNAKNTVYLQMNSLKPEDTAVYYCNARRRGYGNRYTFDYWGQGTQVTVSS	high polyreactivity
QVQLVESGGGLVQAGGSLRLSCAASGSTFIKNAMGWYRQAPGKERELVAAINNSGSRTYYADSVKGRFTISRDNAKNTVYLQMNSLKPEDTAVYYCAAGRTYGMGYWGQGTQVTVSS	high polyreactivity
QVQLVESGGGLVQAGGSLRLSCAASGSTFILYAMGWYRQAPGKERELVAAISKRGGSTYYADSVKGRFTISRDNATHTVYFQLKSLKPEDTAVYYLNKKNPQDLTENGYWGQGTEVTVSS	high polyreactivity
QVQLVESGGGLVQAGGSLRLSCAASGSTFINYAMGWYRQAPGKERELVAAYADSVKGRFTISRDNAKNTVYLQMNSLKPEDTAVYYCAARYVYPHQWTPYIRPYDYWGQGTQVTVSS	low polyreactivity
QVQLVESGGGLVQAGGSLRLSCAASGSTFIPYAMGWYRQAPGKERELVAGINGGDGSTYYADSVKGRFTISRDNAKNTVYLQMNSLKPEDTAVYYCAKKNPLVFTSGMDYWGQGTQVTVSS	low polyreactivity
QVQLVESGGGLVQAGGSLRLSCAASGSTFISYAMGWYRQAPGKERELVAAISSSGGSTYYADSVKGRFTISRDNAKYTVYLQMNSLKPEDTAVYYCAAESVYYRSWRYYYWGQGTQVTVSS	high polyreactivity
QVQLVESGGGLVQAGGSLRLSCAASGSTFITYAMGRYRQAPGKERELVAAIRWSGGGTYYADSVKGRFTISRDNAKNTVYLQMNSLKPEDTAVYYCAADHFNYTTGRDYWGQGTQVTVSS	low polyreactivity
QVQLVESGGGLVQAGGSLRLSCAASGSTFITYAMGWYRQAPGKERELVAAIRVIGGRTYYADSVKGRFTISRDNAKNTVYLQMNSLKPEDTAVYYCAVTGRGWGYDYWGQGTQVTVSS	high polyreactivity
QVQLVESGGGLVQAGGSLRLSCAASGSTFITYGMGWYRQAPGKERELVARITLSGGSTYYADSVKGRFTISRDNAKNTVYLQINSLKPEDTAVYYCATDFGWQYYVLDGYYWGQGTQVTVSS	low polyreactivity
QVQLVESGGGLVQAGGSLRLSCAASGSTFIVNAMGWYRQAPGKERELVAAITEDGDTTYYADSVKGRFTISRDHAKKTVYLQMNSLKPEDTAVYYCAARTYRGLADDYWGQGTQVTVSS	high polyreactivity
QVQLVESGGGLVQAGGSLRLSCAASGSTFIYNAMGWYRQAPGKERELVAAITDGSTKYADSVKGRFTISRDNAKNTVYLQMNSLKPEDTAVYYCNAYVWRWRYDSWGQGTQVTVSS	low polyreactivity
QVQLVESGGGLVQAGGSLRLSCAASGSTFKANAMGWYRQAPGKERELVASIRFSAGSTYYADSVKGRFTISRDNAKNTVYLQMNSLKPEDTAVYYCAAGRHVLKRRYDYWGQGTQVTVSS	low polyreactivity
QVQLVESGGGLVQAGGSLRLSCAASGSTFKFNAMGWYRQAPGKERELVAAISRGGRTNYADSVKGRFTISRDNAKNTVYLQMNSLKPEDTAFYYCAADYSTLYKDDYWGQGTQVTVSS	low polyreactivity
QVQLVESGGGLVQAGGSLRLSCAASGSTFKGNAMGWYRQAPGKERELVAAINRSGTSTYYADSVKGRFTISRDNAKNTVYLQMNSLKPEDTAVYYCAKKYFGHRFDYWGQGTQVTVSS	high polyreactivity
QVQLVESGGGLVQAGGSLRLSCAASGSTFKIYAMGWYRPAPGKERELVAAITRGASTYADSVKGRFTISRDNAKNTVYLQMNSLKPEDTAVYYCAAYRRPSRSGDKPIGFDYWGQGTQVTVSS	high polyreactivity
QVQLVESGGGLVQAGGSLRLSCAASGSTFKIYAMGWYRQAPGKERELVARITSGGSTNYADSVKGRFTISRDNAKNTVYLQMNSLKPEDTAVYYCAVPWYTRESGAYDYWGQGTQVTVSS	high polyreactivity

Sequence	polyreactivity (PSR sort gate)
QVQLVESGGGLVQAGGSLRLSCAASGSTFKKYAMGWYRQAPGKERELVAAITWTGGSTYYADSVKGRFTISRDNAKNTVYFQMNSLKPEDTAVYYCAAYKTYAVKYYWGQGTQVTVSS	high polyreactivity
QVQLVESGGGLVQAGGSLRLSCAASGSTFKNNAMGWYRQAPGKEREFVASISKRGGSTYYADSEKGRFTISRDNAKNTVYLQMNSLKPEDTAVYYCAAEELRYGLYEYDYWGLGTQVTVSS	high polyreactivity
QVQLVESGGGLVQAGGSLRLSCAASGSTFKNYVMGWYRQAPGKERELVAAISRSGGRTYYADSVKGRFTISRDNAKNTVYLQMYSLKPEVTAVYYCATPDQVELSSYDYWGEGTQVTVSS	high polyreactivity
QVQLVESGGGLVQAGGSLRLSCAASGSTFKPNAMGWYRQAPGKERELVAAITSGSTYYADSVKGRFTISRDNAKNSVYLQMNSLIPEDSAVYYCATSFRGKSPYRNSGSYYFWGQGTQVTVSS	high polyreactivity
QVQLVESGGGLVQAGGSLRLSCAASGSTFKQYAKGWYRQAPGKERELVAAISSVGRTYYADSVKGRFTISRDNAKNTVYLQINSLKPEDTAVYYCNRRWYTHWGQGTQVTVSS	high polyreactivity
QVQLVESGGGLVQAGGSLRLSCAASGSTFKRNAMGWYRQAPGKDRELVAAISFRGGSTYYADSVKGRFTISRDNAKNTVYLQMNSLKPEDTAVYYCAAGIYRIRGGGISFDYWGQGTQVTVSS	high polyreactivity
QVQLVESGGGLVQAGGSLRLSCAASGSTFKRNAMGWYRQAPGKERELVASISKRGGSTYYADSVKGRFTISRDNAKNTVYLQMNSLKPEDTAVYYCAKTWQNGDRNTIGSVYAYYSWGQGTQVTVSS	high polyreactivity
QVQLVESGGGLVQAGGSLRLSCAASGSTFKRNAMGWYRQAPVKERELVATITRRGGSTYADSVKGRFTISRDNAKNTVYLQMNSLKAEDTAVYYCARDGFSGGMDYWGQGTQVTVSS	low polyreactivity
QVQLVESGGGLVQAGGSLRLSCAASGSTFKRYAMGWSRQAPGKERECVAGITWRGGRTYYADSVKGRFKISRDIAKNTVYLQMNSLKPEDTSVYYCAATFYTSSHLAGYYWGQGTQVTVSS	high polyreactivity
QVQLVESGGGLVQAGGSLRLSCAASGSTFKRYAMGWYRQAPGKDRELVASISSGGSPNYADSVKGRFTISRDNAKNTVYLQMNSLKPEDTAVYYCAVSYRSFRYFWERYSSWGQGTQVTVSS	high polyreactivity
QVQLVESGGGLVQAGGSLRLSCAASGSTFKRYAMGWYRQAPGKERELVAAITNGDRTNYADSVKGRFTISRDNAKNTVYLHMNSLKPEDTALYYCAAAYSRYTSRFYYWGQGTQVTVSS	high polyreactivity
QVQLVESGGGLVQAGGSLRLSCAASGSTFKRYAMGWYRQAPGKERELVAAITNGDRTNYADSVKGRFTISRDNAKNTVYLQMNSLKPEDTAVYYCAAAYSRYTSRFYYWGQGTQVTVSS	high polyreactivity
QVQLVESGGGLVQAGGSLRLSCAASGSTFKRYAMGWYRQAPGKERELVASISRSGGSTYYADSVKGRFTISRDNAKNTVYLQMNSLKPEDTAVYYCNARNRVYYTLSGYGYWGQGTQVTVSS	high polyreactivity
QVQLVESGGGLVQAGGSLRLSCAASGSTFKRYAMGWYRQAPGKERELVASISSGGSTNYADSVKGRFTISRDNAKNTVYLQMNSLKREDTAVYYCAVSYRSFRYYWERYYSWGQGTQVTLSS	high polyreactivity
QVQLVESGGGLVQAGGSLRLSCAASGSTFKRYDLGWYRQAPGKERELFAAIRTSGGTTYYADSVKCRFTISRDYAKNNVYLQMNSLKPEDTAVYYCAASKWPRHRTRRYYYWVQGTQVTVSS	high polyreactivity
QVQLVESGGGLVQAGGSLRLSCAASGSTFKRYTMGWYRQAPGKESELVAAISSSGGSTYYADSVKGRFTISRDNAKNTVYLQMNSQKPEDTAVYYCAKGYQRGRDYWGQGTQVTVSS	high polyreactivity
QVQLVESGGGLVQAGGSLRLSCAASGSTFKSYAMGWYRPAPGKERELVAAISSSGGSTYYADSVKGRFTISRDNAKNTVYLQMNSLKPEDTAVYYCNAVWVQGGIGNYWGQGTQVTVSS	low polyreactivity
QVQLVESGGGLVQAGGSLRLSCAASGSTFKTYAMGWYRQAPGKERELVAAITSSGGRTYYADSVKGRFTISRDNAKNTVYLQMNSLKPEDTAVYYCAAGRRSYNQLDYWGQGTQVTVSS	high polyreactivity
QVQLVESGGGLVQAGGSLRLSCAASGSTFKTYTMGWYRQAPGKEREFVAGITSGGSTSYADSVKGRFTISRDNAKNTVYLQMNSLKQEDTAVYYCAAPDGDTSFSDQAYDYWGQGTQVTVSS	low polyreactivity
QVQLVESGGGLVQAGGSLRLSCAASGSTFKTYVMGWYRQAPGKERELVAGISDSGGTTYYADSVKGRFTISRDNAKNTVYLQMNSLKPEDTAVYFCNAAFGVYVATGDSFPWHKKFGYWGQGTQVTVSS	high polyreactivity
QVQLVESGGGLVQAGGSLRLSCAASGSTFKVYAMGWYRQAPGKERELVAAISTGGGSTYYADSVKGRFTISRDNAKNTVSLQMNSLKPEDTAVYYCAAVDRYPYAGYYWGQGTQVTVSS	high polyreactivity
